In the DeepSol protein solubility set:

test: soluble on expression in E. coli; label from the status in PepcDB or PDB records

Sequence | soluble on expression in E. coli
MKVCLQCENFFSSADWACPSCGYQPERLNGIEAHASEFAHGGGGFKPEYFSELSRLEAGNFWFRARNELILWALRTYKPNAGAFLEVGCGTGFVLSGIARACPEIALNGSEIFLAGLFHAAKRVPSTHFMQMDARRVPFVEEFDAIGAFDVLEHIEEDETVLAQLHNAIKPSGVLLLTVPQHPRLWSASDDYACHVRRYTRVEIEQKVLTAGFELLRSSSFVTSLLPVMMLSRVLQKRKTKDFDPAGELKINAALNKVFYGLMMLELAGIRLGMNYPVGGSRLVVAKKQSALEHHHHHH | not soluble
MKFKTNKLSLNLVLASSLLAASIPAFAVTGDTDQPIHIESDQQSLDMQGNVVTFTGNVIVTQGTIKINADKVVVTRPGGEQGKEVIDGYGKPATFYQMQDNGKPVEGHASQMHYELAKDFVVLTGNAYLQQVDSNIKGDKITYLVKEQKMQAFSDKGKRVTTVLVPSQLQDKNNKGQTPAQKKGN | soluble
MKEDPRIIKTLSKLQKAFVMLLKTYDAGDINVRQISDEAGVTRGAFYSHFSDKKEFVNFTINELVGSLFNSSLEHHHHHH | not soluble
MFQALLTKLKNNAALGAAANNLNKFRSSNLGNQRRSVSVAVTSTSPKSEKPVAREHMIYDETHFVMQKSLGKLIEEKINPNVAKWEQDGRYPAHLVFKMLGDHGVFGVNKPEAFGGTGTDIAMATAIAEQMGAINCGSIPMSVMVQTDMSTPALAQFGSDALRERFLRPSITGDLVSSLAVSEPHAGSDVSAVHTHARRQGSDLIINGSKMWITNGGQADWACVLVNTSNTSNVHKNKSLVCVPLDAVGVHRSTPLDKLGMRSSDTVQLFFEDVRVPSSYIIGEEGRGFGYQMKQFNDERLVTVAVGLLPLQKCIDETIEYARDRLLFGKTLLDQQYIQFQLAELEAELEATRALLYRTVLARSRGDDVSMLTAMAKLKIGRLARAITDQCLQVWGGAGYLNENGISRAFRDFRLFSIGAGCDEVMMRIIHKAQSRRQLKKA | not soluble
MRDTMEILRTENIVKYFGEFKALDGVSISVNKGDVTLIIGPNGSGKSTLINVITGFLKADEGRVYFENKDITNKEPAELYHYGIVRTFQTPQPLKEMTVLENLLIGEINPGESPLNSLFYKKWIPKEEEMVEKAFKILEFLKLSHLYDRKAGELSGGQMKLVEIGRALMTNPKMIVMDQPIAGVAPGLAHDIFNHVLELKAKGITFLIIEHRLDIVLNYIDHLYVMFNGQIIAEGRGEEEIKNVLSDPKVVEIYIGE | soluble
MGSDKIHHHHHHMYQVPLEMICRHDRTAEVCRAAVEEDGWQLENVPEEMKTPELCRKALETEAGFGNDFHRGLVQHIPSPEVCMEVLKECRENNPEELYGVAVAIRPEVMNGEMADFLLPLDGRCISILPVHLQTPERVRVAVETSGMSAVGRGGVPKSLLTPDVYVRCAAHSRESLMMIPWAERSPEVCLMAKTLYPDIVKNHPEFVPESVRNQDSIYTLNSLMESLTGEKFSYRQMTDFYNGKPLDVKRMETPDGVQKDKAVKFDKETGKFSFSDIRQERKRGLKM | not soluble
GDDNSYSLGDIWIAVATVVPEGNNVYYLRLDDGDKLWPAATNYPNYQPKPNQRALVNFTILADSTQSNLGGFSHYIKVNAIHNILTKSIAKNEGAANDSIYGTDPVSIYNNNMWIGDGYLNIYFETLWGGKTAHFINLIQPDAENDPYTLEFRHNAYDDPQYTIGAGRVAFNLSSLPDTKGETVDLVVNYWTSEGKQAYKLKYNSDKTKMEDTSQGYTNDSISNITDMK | soluble
MPLLCALIVGGLFGTSQAQAGGFMVPTTNTAGWGRAMAGGSLFPNDPSAAFNNPAAMAFIDKRIAQLTVNYADIDIKYNGDAYDYQGNPMTGGYQDGPGTPELGTNDGGQAGFGAWLPTGFLVVPINDRFAFGLSQVVPMGMRSTWDPNWKGRDFAVDTKIETIGLTGSLSFKVNDNFSLGAGVIIQRTSGFVSQNLDLYASAANSPGMGGIPFPASNSSALMRVKVDNTSPGFFAGAVWKPTDRDTLGFAYHAKIRNKLKGHYNLYDHDGGLTEGAIEGGTPGLAYPGLDLRMGASASARLDIPAYASLDWVHQFNDRLSLGASATWTEWSSFQDLTLKSHGNTIVSIPYTYRNTWTLAVGGDYKVTDQWTMRAGVAYDQTPTHNATRDPRIPDGDRYFASLGAGYRFQSMPELSIDAAYSRQFVKEVPLKTVNQDRLGGGRLDGRATSKGQVFSLSATYDF | not soluble
MSLTTRVIALDLDGTLLTPKKTLLPSSIEALARAREAGYQLIIVTGRHHVAIHPFYQALALDTPAICCNGTYLYDYHAKTVLEADPMPVIKALQLIEMLNEHHIHGLMYVDDAMVYEHPTGHVIRTSNWAQTLPPEQRPTFTQVASLAETAQQVNAVWKFALTHDDLPQLQHFGKHVEHELGLECEWSWHDQVDIARGGNSKGKRLTKWVEAQGWSMENVVAFGDNFNDISMLEAAGTGVAMGNADDAVKARANIVIGDNTTDSIAQFIYSHLIEGHHHHHH | soluble
APKASLRLGFSEYSRISNLIVLHLRKVEEEEDESALKRSELVNWYLKEIESEIDSEEELINKKRIIEKVIHRLTHYDHVLIELTQAGLKGSTEGSESYEEDPYLVVNPNYLLED | soluble
MGSDKIHHHHHHMVAATSQNTFDSPRSPLYNFTMDIRPLSDVAGVILVGGRSRRMGRDKALIPLGGKPLVERVIDAFRPLFERILLVGDRGERFASYGLPVFPDIHPGSALGGLYTGLVRAGTPHVFVSACDVPWPDPRVIARLCSLREGFDVVVPRTVGGSEPLFAVYGTGCLPAMERMLREGNYRIYDFYPEVRTRYVEQAELADLVTPARTFVNVNTPEEFETIRNREEGMAIKAVSFVAKSGTGKTTLLEKVIAELKGRGYRIGVIKHDAHRFDIDHPGKDSHRLAAAGADTMLIASPEKLALVKKYDESPPLDELLATYFGDVDIVLTEGFKKSSLPKIEVHRMERSATLLCRGEEHDPTLVAVASDAALALDVPVFDLNNPAQVADFVERTFLAAGAA | not soluble
MATALYTANDFILISLPQNAQPVTAPGSKTDSWFNETLIGGRAFVSDFKIPEFKIGSLDTLIVESEELSKVDNQIGASIGKIIEILQGLNETSTNAYRTLPINNMPVPEYLENFQWQTRKFKLDKSIKDLITLISNESSQLDADVRATYANYNSAKTNLAAAERKKTGDLSVRSLHDIVKPEDFVLNSEHLTTVLVAVPKSLKSDFEKSYETLSKNVVPASASVIAEDAEYVLFNVHLFKKNVQEFTTAAREKKFIPREFNYSEELIDQLKKEHDSAASLEQSLRVQLVRLAKTAYVDVFINWFHIKALRVYVESVLRYGLPPHFNIKIIAVPPKNLSKCKSELIDAFGFLGGNAFMKDKKGKINKQDTSLHQYASLVDTEYEPFVMYIINL | soluble
MKRGDIAHGLRLSGFKSLFPFSLHWCHTASKSVNCTWHQHEDHLELQYASTVMRFDYVWLRDHCRSASCYNSKTHQRSLDTASVDLCIKPKTIRLDESTLFFTWPDGHVTRYDLDWLVKNSYEGQKQEVIQPRVLWNAKLYQDAQLPSVDFQGFLETKEGLKKFLQNFLLYGIAFVENVPPTQEHTEKLARRVSLIRETIYGRMWYFTSDFSRGDTAYTKLALDRHTDTTYFQEPCGIQVFHCLKHEGTGGRTLLVDGFYAAQQVLQRAPEEFDLLSQVPLKHEYIENVGQCHNHMIGVGPILNIYPWNKELYLIRYNNYDRAVINTVPYDVVRRWYAAHRTLTTELRRPENELWVKLKPGKVLFIDNWRVLHGRESFTGYRQLCGCYLTRDDVLNTARILGLHA | not soluble
MTDVIKPDYLEYDDLLDRDEMFTILEEYFMYRGLLGLRIKYGRLFNEIKKFDNDAEEQFGTIEELKQKLRLNSEEGADNFIDYIKVQKQDIVKLTVYDCISMIGLCACVVDVWRNEKLFSRWKYCLRAIKLFINDHMLDKIKSILQNRLVYVEMSKHHHHHH | soluble
MKSTMGIILTGGKNDRLKELAEMRSSTAVPIGGKYRVIDFVLSNMVNSGIKNIGVLTQYSFRSLMDHLGSGKEWDLDRRNEGLFIFPPYLAGEHSGWYQGSADAMYHNITFLKRSYEEYVLVAQGNCVYKMLFDDMLDYHIKKNADITIAYRDMSDFPREELSFMGVMTMDENRRVVDFKEKHKNPESTICSMGIYILKRELLIALLEECNSHGKYDFVKDVIINKLPTLNIYGYKFEGYWRNLNSINAYYRINMEMLNPEIRYQLFEQHGKVYTKVKDEPPAKYNEEAEVRNSIIADGCIIEGTVINSVLFRGVTIKRNAVVKDCIIMQDSVIEEDVDIESLIIDKNVYLSKGIRLKGMVNFPITIGKNAVI | not soluble
